Assays:
[1] = target: T1, Aplysia californica acetylcholine binding protein (AChBP) (Aplysia californica)
T1 chain: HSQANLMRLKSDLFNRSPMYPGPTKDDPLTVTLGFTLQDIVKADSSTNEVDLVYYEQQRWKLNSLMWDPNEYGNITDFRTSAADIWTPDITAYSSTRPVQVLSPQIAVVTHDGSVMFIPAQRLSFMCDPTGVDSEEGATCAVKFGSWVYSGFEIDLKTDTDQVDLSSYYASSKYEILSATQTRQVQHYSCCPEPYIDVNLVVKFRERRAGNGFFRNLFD

[2] = target: T2, Lymnaea stagnalis acetylcholine binding protein (AChBP) (Lymnaea stagnalis), P58154
[3] = target: T1, Aplysia californica acetylcholine …
[4] = target: T1, Aplysia californica acetylcholine …
[5] = target: T2, Lymnaea stagnalis acetylcholine binding …; test: stopped-flow spectrofluorimetry
[6] = target: T2, Lymnaea stagnalis acetylcholine binding …; test: ratio of Kd on Lymnaea AChBP to Kd on Aplysia AChBP
[7] = target: T1, Aplysia californica acetylcholine …; test: stopped-flow spectrofluorimetry, excitation 280 nm, emission above 305 nm
[8] = target: T2, Lymnaea stagnalis acetylcholine binding …; test: as above

T2 sequence (P58154 20-229): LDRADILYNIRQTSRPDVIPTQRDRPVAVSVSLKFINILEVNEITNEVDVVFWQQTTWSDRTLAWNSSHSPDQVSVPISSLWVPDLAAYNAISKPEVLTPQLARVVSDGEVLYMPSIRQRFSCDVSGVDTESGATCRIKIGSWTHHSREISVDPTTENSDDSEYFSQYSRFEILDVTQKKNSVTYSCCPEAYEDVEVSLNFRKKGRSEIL

GCCSDPRCAWRC (modifications not checked) [α-conotoxin ImI, P50983 5-16] gave a Kd [1] of 0.00088 µM, a Kd [2] of 14 µM and a koff [3] of 0.01 s⁻¹. The fold greater affinity than for L-AChBP [4] was > 10000 fold, the koff [5] was 19 s⁻¹ and the Kd Ratio L/A [6] was 16000. The kon [7] was 1.6e+07 M⁻¹ s⁻¹ and the kon [8] was 1.4e+06 M⁻¹ s⁻¹.
